Earlier results as cited in patent US20050096266A1, “Preparation and method for weight reduction” (priority 2002, published 2005).

Test system: trypsin
Settings: trypsin secreted into the duodenum by the pancreas; per one weight unit of inhibitor

B1: soybean trypsin inhibitor: Commercial proteinous trypsin inhibitor (Type Il-S, Sigma Chemical Co.) that binds trypsin, forming inactive complexes (protein, UniProt P01070 25-205, looked up)
Trypsin inhibitor A: DFVLDNEGNPLENGGTYYILSDITAFGGIRAAPTGNERCPLTVVQSRNELDKGIGTIISSPYRIRFIAEGHPLSLKFDSFAVIMLCVGIPTEWSVVEDLPEGPAVKIGENKDAMDGWFRLERVSDDEFNNYKLVFCPQQAEDDKCGDIGISIDHDDGTRRLVVSKNKPLVVQFQKLDKESL
weight units of trypsin inactivated by one weight unit of the inhibitor: 2.5 weight units
